The text below walks through data of patent EP4681731A1 (Bio-Thera Solutions, Ltd., dated 2026).

The target of test [1] is T1, human OX40 on PG-Jurkat-hOX40-NF-kB cells (human, UniProt P43489 29-277).
T1 sequence (looked up): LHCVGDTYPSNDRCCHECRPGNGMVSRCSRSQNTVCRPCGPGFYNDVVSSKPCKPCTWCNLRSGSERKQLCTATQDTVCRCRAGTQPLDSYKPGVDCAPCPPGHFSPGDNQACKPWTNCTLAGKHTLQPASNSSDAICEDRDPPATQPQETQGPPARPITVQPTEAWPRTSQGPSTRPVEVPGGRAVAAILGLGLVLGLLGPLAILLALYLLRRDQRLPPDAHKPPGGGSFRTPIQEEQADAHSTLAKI
Put plainly: cell-based or functional assay.

Test [2] addresses T1, human OX40 on PG-Jurkat-hOX40-NF-kB …. Briefly: flow cytometry competition against OX40L-mFc on PG-Jurkat-OX40-NF-kB cells; reference antibody KHK4083.
The target is the same in test [3]. Briefly: flow cytometry competition: antibody titrated against OX40L-mFc (1.5 ug/mL) on PG-Jurkat-OX40-NF-kB cells, anti-mFc APC detection.

B1: antibody M-KF (antibody, human IgG1, kappa, V domains shown)
VH: QVQLVESGGGVVQPGESLRLSCAASGFTFSSYGMHWVRQAPGKGLEWVAVIWEDGSNQYYADSVKGRFTISRDNSKNTLYLQMNSLRAEDTAVYYCAKDNQDTSPDVGIDYWGQGTLVTVSS
VL: DIQMTQSPSSLSASVGDRVTITCRASQNISPFLNWYQQKPGKAPKLLIYAAVGLQSGVPSRFSGSGSGTDFTLTISSLQPEDFATYYCQQYTDYPLTFGGGTKVEIKR
notes: Expressed in CHO-BAT-KF cells (alpha-(1,6)-fucosyltransferase knocked out); also called anti-OX40 antibody
Consider B1, for which, in test [1], the “IC50 of blocking OX40L-mFc-induced NF-kB luciferase reporter signal (RLU) in PG-Jurkat-OX40-NF-kB cells” value stood at 0.095 nM and the “fold lower IC50 than antibody KHK4083 in the NF-kB luciferase reporter assay” value was determined as 4.8 fold. Further, in test [2], the “fold lower IC50 than antibody KHK4083” value worked out at 2.8 fold. Moreover, the half-inhibitory concentration (IC50) in test [3] came out at 0.85 nM.
